Experimental data as given in PMC7136618, “Defective nucleotide-dependent assembly and membrane fusion in Mfn2 CMT2A variants improved by Bax” (Life Science Alliance, 2020).
Numbering of substitutions follows the chain as printed. Names and notes keep the numbering of the source.

B1: Mfn2^S378P with a C-terminal 3×FLAG tag (natural protein, UniProt Q80U63 1-757, looked up)
chain: MSLLFSRCNSIVTVKKDKRHMAEVNASPLKHFVTAKKKINGIFEQLGAYIQESASFLEDTHRNTELDPVTTEEQVLDVKGYLSKVRGISEVLARRHMKVAFFGRTSNGKSTVINAMLWDKVLPSGIGHTTNCFLRVGGTDGHEAFLLTEGSEEKKSVKTVNQLAHALHQDEQLHAGSMVSVMWPNSKCPLLKDDLVLMDSPGIDVTTELDSWIDKFCLDADVFVLVANSESTLMQTEKQFFHKVSERLSRPNIFILNNRWDASASEPEYMEEVRRQHMERCTSFLVDELGVVDRAQAGDRIFFVSAKEVLSARVQKAQGMPEGGGALAEGFQVRMFEFQNFERQFEECISQSAVKTKFEQHTVRAKQIAEAVRLIMDPLHIAAQEQRVYCLEMREERQDRLRFIDKQLELLAQDYKLRIKQITEEVERQVSTAMAEEIRRLSVLVDEYQMDFHPSPVVLKVYKNELHRHIEEGLGRNLSDRCSTAIASSLQTMQQDMIDGLKPLLPVSMRNQIDMLVPRQCFSLSYDLNCDKLCADFQEDIEFHFSLGWTMLVNRFLGPKNSRRALLGYSDQVQRPLPLTPANPSMPPLPQSSLTQEELMVSMVTGLASLTSRTSMGILVVGGVVWKAVGWRLIALSFGLYGLLYVYERLTWTTKAKERAFKRQFVEYASEKLQLIISYTGSNCSHQVQQELSGTFAHLCQQVDITRDNLEQEIAAMNKKVEALDSLQSRAKLLRNKAGWLDSELNMFTHQYLQPSR
notes: Mitofusin 2 (Mfn2) with the CMT2A-associated substitution S378P; CMT2A-associated (patient) substitution; also called Mfn2-FLAG variant S378P; source: Mfn2-null MEFs, retroviral transduction, clonal population; isolated mitochondria, lysed; not shown: 3×FLAG, C-terminal, kept
B2: Mfn2^Q386P with a C-terminal 3×FLAG tag (natural protein, UniProt Q80U63 1-757, looked up)
chain: B1 chain with P378S, Q386P
notes: Mitofusin 2 (Mfn2) with the CMT2A-associated substitution Q386P; CMT2A-associated (patient) substitution; also called Mfn2-FLAG variant Q386P; source: Mfn2-null MEFs, retroviral transduction, clonal population; isolated mitochondria, lysed; not shown: 3×FLAG, C-terminal, kept
B3: Mfn2^C390F with a C-terminal 3×FLAG tag (natural protein, UniProt Q80U63 1-757, looked up)
chain: B1 chain with P378S, C390F
notes: Mitofusin 2 (Mfn2) with the CMT2A-associated substitution C390F; CMT2A-associated (patient) substitution; also called Mfn2-FLAG variant C390F; source: Mfn2-null MEFs, retroviral transduction, clonal population; isolated mitochondria, lysed; not shown: 3×FLAG, C-terminal, kept
B4: Mfn2^A383V with a C-terminal 3×FLAG tag (natural protein, UniProt Q80U63 1-757, looked up)
chain: B1 chain with P378S, A383V
notes: Mitofusin 2 (Mfn2) with the CMT2A-associated substitution A383V; CMT2A-associated (patient) substitution; also called Mfn2-FLAG variant A383V; source: Mfn2-null MEFs, retroviral transduction, clonal population; isolated mitochondria, lysed; not shown: 3×FLAG, C-terminal, kept

How the values were obtained:
[1] = molecular target: Mfn2^WT with a C-terminal 3×FLAG tag (UniProt Q80U63); assay: native gel or EMSA; BN-PAGE of untreated isolated mitochondria, lysed in 1% digitonin; 4–16% Bis-Tris native gel at 4°C; anti-FLAG blot
[2] = molecular target: the molecule itself; assay: as above

| Molecule | stoichiometry N [1] | stoichiometry N [2] |
| --- | --- | --- |
| Mfn2^WT with a C-terminal 3×FLAG tag (from UniProt Q80U63 1-757) (natural protein) | 2 |  |
| B1 |  | 2 |
| B2 |  | 2 |
| B3 |  | 2 |
| B4 |  | 2 |
